Data as given in US20220241369A1, “COMPOSITIONS AND METHODS OF MODULATING INFLAMMATION” (La Jolla Institute for Allergy and Immunology, priority 2018, published 2022).

Key:
[1] = tested on: OVA-induced food allergy (allergic diarrhea); assay: IgE-mediated experimental food allergy, i.g. pretreatment with HRF inhibitor before each OVA challenge; assay type: in vivo, mouse
Experimental: FIGS. 1A-1I show GST-N19 inhibits the development of diarrhea and intestinal mastocytosis in murine food allergy. Mice were i.p. sensitized with OVA ([…]) plus alum on days 0 and 14. From day 28, mice were i.g. challenged with OVA (50 mg) three times a week. Sensitized mice were either non-pretreated (−) or i.g. pretreated with 100 μg of GST or GST-N19 (N19). (FIG. 1A) Procedure scheme. (FIG. 1B) The development of diarrhea was monitored for 90 min after each OVA challenge. (n=5 for non-sensitized group, n=3 for inhibitor non-pretreated group, n=4 for GST group, n=6 for N19 group, data are representative of at least 3 independent experiments) Log-rank test: p=0.028 (GST vs. GST-N19), p=0.036 (control vs. GST-N19). […] (FIG. 1C-FIG. 1E) Total IgE, IgG1, HRF, and HRF-reactive IgE and IgG in sera were measured by ELISA. (FIG. 1F) Serum mMCP-1 was also measured by ELISA. (FIG. 1G) Sections of jejunum were stained with chloroacetate esterase to identify mast cells. Sections indicated by rectangles are enlarged in lower rows. Bar=100 μm in large pictures and 50 μm in insets. (FIG. 1H) Flow cytometry was performed to enumerate MMC9s (Lin^−c-Kit^+ST2^+IL-17RB^−Integrin β7^lo) in jejunum. (n=14 for non-sensitized group, n=15 for inhibitor non-pretreated group, n=9 for GST group, n=9 for GST-N19 group, pooled data of 3 independent experiments) (FIG. 1I) Cytokine mRNAs in jejunum were quantified by qRT-PCR. *, **: p<0.05, p<0.01 by ANOVA with Tukey's multiple comparison.
Mice were i.p. sensitized with OVA (50 μg/mouse) plus alum on days 0 and 14. From day 28, mice were i.g. challenged with OVA (25 or 50 mg) or PBS (control) three times a week. Before each challenge, mice were starved for 3 h, then i.g. pretreated with GST, GST-N19 (100 μg/mouse), synthetic N19 peptide, or HRF-2CA. The development of diarrhea was monitored for 90 min after OVA challenge. Diarrhea severity (30) was based on states of stool: solid (score 0), funicular (score 1), slurry (score 2), and watery (score 3).
For histologic analysis, jejunal tissue was fixed in 10% formalin. Mast cells in jejunal sections were detected by chloroacetate esterase staining. IgE, IgG, IgG1, IgG2a, mMCP-1, HRF, HRF-reactive IgE, and HRF-reactive IgG 24 h after the last OVA challenge were measured by ELISA (see Supplemental Information). Cytokine mRNAs in jejunum were quantified by qRT-PCR.
Twenty-four hours after the last OVA challenge, mice were sacrificed and small intestines (0.5-15 cm from stomach) were collected. The intestinal tissues were opened longitudinally and washed with HBSS. The washed tissues were incubated with 5 mM EDTA-HBSS for 30 min at 4° C., transferred to 30 ml HBSS in 50 ml tubes, and vigorously shaken to remove intestinal epithelial cells. The tissues were then washed with 10 ml of 10% FCS RPMI medium. Tissues were cut into tiny pieces and incubated with 2.4 mg/ml Collagenase D and 0.2 mg/ml DNase for 30 min at 37° C. Then cells were washed, resuspended in 44% Percoll solution, and slowly loaded on the top of 67% Percoll solution. The cells were centrifuged (1800 rpm, 20 min) and lymphocyte fractions were collected and used for detection of MMC9s (Lin^−c-Kit^+ST2^+IL-17RB^−Integrin β7^lo).
The cells were first incubated with 2.4G2 for 15 min at 4° C. and further incubated with Abs (PE-anti-07 integrin mAb (clone FIB504), PerCP/Cy5.5-anti-CD4 mAb (clone RM4-5), PerCP/Cy5.5-anti-CD8 mAb (clone 53-6.7), PerCP/Cy5.5-anti-CD11b mAb (clone M1/70), PerCP/Cy5.5-anti-CD11c mAb (clone N418), PerCP/Cy5.5-anti-B220 mAb (RA3-6B2), PerCP/Cy5.5-anti-Ly-6G/Ly-6C mAb (clone RB6-8C5), PerCP/Cy5.5-anti-CD335 mAb (clone 29A1.4), AlexaFluor647-anti-IL-17RB (clone 9B10), APC/Cy7-anti-CD117 (clone 2B8), Biotin-anti-ST2 (clone DIH9)) (Biolegend) for 30 min at 4° C. After washed, the cells were incubated with SA-BV421 (Biolegend) for 30 min at 4° C. MMC9 population was identified using FACS Canto. Data were analyzed using FlowJo software.

[2] = tested on: sensitization phase of murine food allergy; assay: Pretreatment with HRF inhibitor before sensitization with OVA plus alum; assay type: in vivo, mouse; conditions: 100 μg i.g. one day before i.p. immunization on days 0 and 14
Experimental: Mice were i.g. pretreated with 100 μg of GST, GST-N19, HRF-2CA or PBS (OVA) one day before i.p. immunization with OVA plus alum on days 0 and 14. From day 28, mice were i.g. challenged with OVA three times a week. (FIG. 9A) Procedure scheme. (FIG. 9B) The development of diarrhea was monitored after OVA challenge. (n=5 for OVA, n=4 for GST, n=5 for N19, n=5 for 2CA, and n=3 each for unsensitized pretreated groups (not shown)). (FIG. 9C, FIG. 9D) Total IgE and IgG1 were measured by ELISA.
Whether HRF inhibitors affect the sensitization phase of food allergy was tested.

[3] = biological target: IgE on mucosal (IgE+ mMCP-1+, c-Kit+) mast cells of the small intestine of OVA-sensitized/OVA-challenged mice (mouse); assay: confocal microscopy of jejunum, anti-His tag staining (data not shown)

B1: HRF-2CA-His6, a monomeric mutant of mouse HRF (protein)
chain: MIIYRDLISHDELFSDIYKIREIADGLALEVEGKMVSRTEGAIDDSLIGGNASAEGPEGEGTESTVVTGVDIVMNHHLQETSFTKEAYKKYIKDYMKSLKGKLEEQKPERVKPFMTGAAEQIKHILANFNNYQFFIGENMNPDGMVALLDYREDGVTPFMIFFKDGLEMEKAHHHHHH
- HRF-reactive IgE levels ([1]; OVA-sensitized mice after OVA challenges, i.g. pretreatment): did not affect
- reduction of HRF-reactive IgG levels ([1]; after eleven OVA challenges): not affected
- number of mucosal mast cells in jejunum (intestinal mastocytosis) ([1]; i.g. pretreatment before each OVA challenge, chloroacetate esterase staining): inhibits
- levels of total IgE, IgG1, IgG2a or HRF-reactive IgE and IgG ([1]; i.g. pretreatment, serum ELISA): failed to affect
- diarrhea occurrence / incidence ([1]; sensitized mice pretreated i.g. with 100 μg before each OVA challenge): inhibits
- sensitization phase of murine food allergy [2]: do not affect
- percent of IgE+ mMCP-1+ mast cells targeted [3]: 64%
